These results are taken from paper PMC13276077.

Series [1] concerns the target MeCP2 full-length, e2 isoform;histone octamer, tailless H3 (Homo sapiens;Homo sapiens, UniProt P51608;P0C0S8;P62807;P68431;P62805 1-486;2-130;2-126;26-136;2-103, |H3.1 del1-24;A25C;C96S;C110A). In words: EMSA; H3-tailless histone octamer; 20 mM HEPES pH 7.5, 75 mM NaCl, 125 mM KCl, 50 uM EDTA, 2.5 mM beta-mercaptoethanol, 5% glycerol, BSA, 1.58 uM 47 bp competitor DNA (nucleosome assays); absent w. Background: A gel shift assay detects complexes by their altered migration in electrophoresis.

Series [2] has as its target MeCP2 full-length, e2 isoform;histone octamer (Homo sapiens;, UniProt P51608;P0C0S8;P62807;P68431;P62805 1-486;2-130;2-126;2-136;2-103, |H2B T115C;H3.1 C96S;C110A). Briefly: EMSA; 20 mM HEPES pH 7.5, 75 mM NaCl, 125 mM KCl, 50 uM EDTA, 2.5 mM beta-mercaptoethanol, 5% glycerol, BSA, 1.58 uM 47 bp competitor DNA (nucleosome assays); absent w.
Series [3] deals with MeCP2 full-length, e2 isoform;histone H1.0;histone octamer (Homo sapiens;Homo sapiens;, UniProt P51608;P07305;P0C0S8;P62807;P68431;P62805 1-486;1-194;2-130;2-126;2-136;2-103, ||H2B T115C;H3.1 C96S;C110A). In words: EMSA; histone H1.0 pre-bound (chromatosome); 20 mM HEPES pH 7.5, 75 mM NaCl, 125 mM KCl, 50 uM EDTA, 2.5 mM beta-mercaptoethanol, 5% glycerol, BSA, 1.58 uM 47 bp competitor DNA (nucleosome assays); absent w.

Series [4] deals with MeCP2 AT-DIRmut;histone octamer (Homo sapiens;, UniProt P51608;P0C0S8;P62807;P68431;P62805 1-486;2-130;2-126;2-136;2-103, R188G;R190G;K254N;K256N;R268Q|H2B T115C;H3.1 C96S;C110A). In words: EMSA; 20 mM HEPES pH 7.5, 75 mM NaCl, 125 mM KCl, 50 uM EDTA, 2.5 mM beta-mercaptoethanol, 5% glycerol, BSA, 1.58 uM 47 bp competitor DNA (nucleosome assays); absent w.
The target in series [5] is MeCP2 MBD;histone octamer (Homo sapiens;, UniProt P51608;P0C0S8;P62807;P68431;P62805 77-167;2-130;2-126;2-136;2-103, |H2B T115C;H3.1 C96S;C110A). The series is described as above.
In series [6] the target is MeCP2 R133G;histone octamer (Homo sapiens;, UniProt P51608;P0C0S8;P62807;P68431;P62805 1-486;2-130;2-126;2-136;2-103, R133G|H2B T115C;H3.1 C96S;C110A). The description is as above.
Series [7] concerns the target HisMBP-MeCP2 205-257 (DIR);histone octamer (Homo sapiens;, UniProt P51608;P0C0S8;P62807;P68431;P62805 205-257;2-130;2-126;2-136;2-103, |H2B T115C;H3.1 C96S;C110A). The description is as above.
In series [8] the target is HisMBP-MeCP2 162-309;histone octamer (Homo sapiens;, UniProt P51608;P0C0S8;P62807;P68431;P62805 162-309;2-130;2-126;2-136;2-103, |H2B T115C;H3.1 C96S;C110A). The description is as above.
For series [9], the target named is HisMBP-MeCP2 162-309;histone octamer, acidic patch mutant (Homo sapiens;Homo sapiens, UniProt P51608;P0C0S8;P62807;P68431;P62805 162-309;2-130;2-126;2-136;2-103, |H2A E61A;E91A;E92A;H2B E113A;H3.1 C96S;C110A). Briefly: EMSA; acidic patch mutant histone octamer; 20 mM HEPES pH 7.5, 75 mM NaCl, 125 mM KCl, 50 uM EDTA, 2.5 mM beta-mercaptoethanol, 5% glycerol, BSA, 1.58 uM 47 bp competitor DNA (nucleosome assays); absent w.

For series [10], the target named is HisMBP-MeCP2 205-257 (DIR) (Homo sapiens, UniProt P51608 205-257). In words: EMSA; 20 mM HEPES pH 7.5, 75 mM NaCl, 125 mM KCl, 50 uM EDTA, 2.5 mM beta-mercaptoethanol, 5% glycerol, BSA, 1.58 uM 47 bp competitor DNA (nucleosome assays; absent with free DNA), room temperature 30 min. The conditions noted are these: protein: recombinant; tags: His-MBP; label: 5' 6-FAM; blunt.

Series [11] concerns the target HisMBP-MeCP2 162-309;histone octamer (Homo sapiens;Homo sapiens, UniProt P51608;P0C0S8;P62807;P68431;P62805 162-309;2-130;2-126;2-136;2-103, |H3.1 C96S;C110A). In words: EMSA; 20 mM HEPES pH 7.5, 75 mM NaCl, 125 mM KCl, 50 uM EDTA, 2.5 mM beta-mercaptoethanol, 5% glycerol, BSA, 1.58 uM 47 bp competitor DNA (nucleosome assays); absent w.

B1: N603-30 nucleosome 91 meCpA (nucleosome)
DNA 1: GAGCCACAAAATCACCGACGCTCACGGGTGCCCAGTTCGCGCGCCCACCTACCGTGTGAAGTCGTCACTCGGGCTTCTAAGTACGCTTAGCGCACGGTAGAGCGCAATCCAAGGCTAACCACCGTGCATCGATGTTGAAAGAGGCCCTCCGTCCTTATTACTTCAAGTCCCTGGGGT
DNA 2: ACCCCAGGGACTTGAAGTAATAAGGACGGAGGGCCTCTTTCAACATCGATGCACGGTGGTTAGCCTTGGATTGCGCTCTACCGTGCGCTAAGCGTACTTAGAAGCCCGAGTGACGACTTCACACGGTAGGTGGGCGCGCGAACTGGGCACCCGTGAGCGTCGGTGATTTTGTGGCTC
modifications: asymmetric meCpA at 91
For orientation: Kd means the equilibrium constant for the complex coming apart. With B1, the Kd was determined as 47 nM in series [1] and 61.4 nM in series [2].

B2: N603-30 nucleosome (single 30 bp linker) (nucleosome)
DNA 1: B1 DNA 1
DNA 2: B1 DNA 2
Consider B2, for which the Kd was found to be 86.9 nM in series [1] and 102 nM in [2].

B3: 15-N601-15 nucleosome unmethylated (nucleosome)
DNA 1: ATGGAACACATTGCACAGGATGTATATATCTGACACGTGCCTGGAGACTAGGGAGTAATCCCCTTGGCGGTTAAAACGCGGGGGACAGCGCGTACGTGCGTTTAAGCGGTGCTAGAGCTGTCTACGACCAATTGAGCGGCCTCGGCACCGGGATTCTCCAGGGCGGCCGCGTATT
DNA 2: AATACGCGGCCGCCCTGGAGAATCCCGGTGCCGAGGCCGCTCAATTGGTCGTAGACAGCTCTAGCACCGCTTAAACGCACGTACGCGCTGTCCCCCGCGTTTTAACCGCCAAGGGGATTACTCCCTAGTCTCCAGGCACGTGTCAGATATATACATCCTGTGCAATGTGTTCCAT
Take B3: in series [3], the binding result is “no binding”. Besides, the dissociation constant (Kd) is 85.2 nM in [4]; 1000 nM in series [5]; 596 nM in [6]; 581 nM in [7]; 240 nM in series [8]; 220 nM in [2]. The Kd in series [9] was determined as 217 nM.

B4: 15-N601-15 nucleosome -61 meCpG (nucleosome)
DNA 1: B3 DNA 1
DNA 2: B3 DNA 2
modifications: meCpG at -61 (GGCACCGGGATT)
As to B4, the binding result in series [3] was “no binding”. Besides, the Kd in series [4] came out at 78.6 nM; in series [5], 809 nM; in series [6], 534 nM; in series [2] it was 137 nM.

B5: 20 bp dsDNA (dsDNA)
DNA 1: AATACGCGGCCGCCCTGGAG
DNA 2: CTCCAGGGCGGCCGCGTATT
For B5, in series [10], the Kd was 814 ± 50.1 nM.

B6: N601 nucleosome core particle unmethylated (nucleosome)
DNA 1: CAGGATGTATATATCTGACACGTGCCTGGAGACTAGGGAGTAATCCCCTTGGCGGTTAAAACGCGGGGGACAGCGCGTACGTGCGTTTAAGCGGTGCTAGAGCTGTCTACGACCAATTGAGCGGCCTCGGCACCGGGATTCTCCA
DNA 2: TGGAGAATCCCGGTGCCGAGGCCGCTCAATTGGTCGTAGACAGCTCTAGCACCGCTTAAACGCACGTACGCGCTGTCCCCCGCGTTTTAACCGCCAAGGGGATTACTCCCTAGTCTCCAGGCACGTGTCAGATATATACATCCTG
As for B6, the dissociation constant (Kd) worked out at 786 nM in series [11], 1970 nM in series [7], 734 nM in [8] and 1830 nM in [9]. Further, the binding result in series [2] is reported as “no binding”.

B7: 16-N603-30 nucleosome unmethylated (nucleosome)
DNA 1: GAGCCACAAAATCACCGACGCTCACGGGTGCCCAGTTCGCGCGCCCACCTACCGTGTGAAGTCGTCACTCGGGCTTCTAAGTACGCTTAGCGCACGGTAGAGCGCAATCCAAGGCTAACCACCGTGCATCGATGTTGAAAGAGGCCCTCCGTCCTTATTACTTCAAGTCCCTGGGGTACCCGTTTCACTGCCA
DNA 2: TGGCAGTGAAACGGGTACCCCAGGGACTTGAAGTAATAAGGACGGAGGGCCTCTTTCAACATCGATGCACGGTGGTTAGCCTTGGATTGCGCTCTACCGTGCGCTAAGCGTACTTAGAAGCCCGAGTGACGACTTCACACGGTAGGTGGGCGCGCGAACTGGGCACCCGTGAGCGTCGGTGATTTTGTGGCTC
As to B7, the Kd in series [4] stood at 41.5 nM; in series [5] it was 716 nM; in [6] it was 188 nM; in series [7], 298 nM; in [8] it was 94.6 nM; in [2], 94.9 nM.
